Biological target: cellular receptors (CIMPR) on normal and Pompe patient fibroblasts (UniProt P11717)
Sequence (P11717 41-2491): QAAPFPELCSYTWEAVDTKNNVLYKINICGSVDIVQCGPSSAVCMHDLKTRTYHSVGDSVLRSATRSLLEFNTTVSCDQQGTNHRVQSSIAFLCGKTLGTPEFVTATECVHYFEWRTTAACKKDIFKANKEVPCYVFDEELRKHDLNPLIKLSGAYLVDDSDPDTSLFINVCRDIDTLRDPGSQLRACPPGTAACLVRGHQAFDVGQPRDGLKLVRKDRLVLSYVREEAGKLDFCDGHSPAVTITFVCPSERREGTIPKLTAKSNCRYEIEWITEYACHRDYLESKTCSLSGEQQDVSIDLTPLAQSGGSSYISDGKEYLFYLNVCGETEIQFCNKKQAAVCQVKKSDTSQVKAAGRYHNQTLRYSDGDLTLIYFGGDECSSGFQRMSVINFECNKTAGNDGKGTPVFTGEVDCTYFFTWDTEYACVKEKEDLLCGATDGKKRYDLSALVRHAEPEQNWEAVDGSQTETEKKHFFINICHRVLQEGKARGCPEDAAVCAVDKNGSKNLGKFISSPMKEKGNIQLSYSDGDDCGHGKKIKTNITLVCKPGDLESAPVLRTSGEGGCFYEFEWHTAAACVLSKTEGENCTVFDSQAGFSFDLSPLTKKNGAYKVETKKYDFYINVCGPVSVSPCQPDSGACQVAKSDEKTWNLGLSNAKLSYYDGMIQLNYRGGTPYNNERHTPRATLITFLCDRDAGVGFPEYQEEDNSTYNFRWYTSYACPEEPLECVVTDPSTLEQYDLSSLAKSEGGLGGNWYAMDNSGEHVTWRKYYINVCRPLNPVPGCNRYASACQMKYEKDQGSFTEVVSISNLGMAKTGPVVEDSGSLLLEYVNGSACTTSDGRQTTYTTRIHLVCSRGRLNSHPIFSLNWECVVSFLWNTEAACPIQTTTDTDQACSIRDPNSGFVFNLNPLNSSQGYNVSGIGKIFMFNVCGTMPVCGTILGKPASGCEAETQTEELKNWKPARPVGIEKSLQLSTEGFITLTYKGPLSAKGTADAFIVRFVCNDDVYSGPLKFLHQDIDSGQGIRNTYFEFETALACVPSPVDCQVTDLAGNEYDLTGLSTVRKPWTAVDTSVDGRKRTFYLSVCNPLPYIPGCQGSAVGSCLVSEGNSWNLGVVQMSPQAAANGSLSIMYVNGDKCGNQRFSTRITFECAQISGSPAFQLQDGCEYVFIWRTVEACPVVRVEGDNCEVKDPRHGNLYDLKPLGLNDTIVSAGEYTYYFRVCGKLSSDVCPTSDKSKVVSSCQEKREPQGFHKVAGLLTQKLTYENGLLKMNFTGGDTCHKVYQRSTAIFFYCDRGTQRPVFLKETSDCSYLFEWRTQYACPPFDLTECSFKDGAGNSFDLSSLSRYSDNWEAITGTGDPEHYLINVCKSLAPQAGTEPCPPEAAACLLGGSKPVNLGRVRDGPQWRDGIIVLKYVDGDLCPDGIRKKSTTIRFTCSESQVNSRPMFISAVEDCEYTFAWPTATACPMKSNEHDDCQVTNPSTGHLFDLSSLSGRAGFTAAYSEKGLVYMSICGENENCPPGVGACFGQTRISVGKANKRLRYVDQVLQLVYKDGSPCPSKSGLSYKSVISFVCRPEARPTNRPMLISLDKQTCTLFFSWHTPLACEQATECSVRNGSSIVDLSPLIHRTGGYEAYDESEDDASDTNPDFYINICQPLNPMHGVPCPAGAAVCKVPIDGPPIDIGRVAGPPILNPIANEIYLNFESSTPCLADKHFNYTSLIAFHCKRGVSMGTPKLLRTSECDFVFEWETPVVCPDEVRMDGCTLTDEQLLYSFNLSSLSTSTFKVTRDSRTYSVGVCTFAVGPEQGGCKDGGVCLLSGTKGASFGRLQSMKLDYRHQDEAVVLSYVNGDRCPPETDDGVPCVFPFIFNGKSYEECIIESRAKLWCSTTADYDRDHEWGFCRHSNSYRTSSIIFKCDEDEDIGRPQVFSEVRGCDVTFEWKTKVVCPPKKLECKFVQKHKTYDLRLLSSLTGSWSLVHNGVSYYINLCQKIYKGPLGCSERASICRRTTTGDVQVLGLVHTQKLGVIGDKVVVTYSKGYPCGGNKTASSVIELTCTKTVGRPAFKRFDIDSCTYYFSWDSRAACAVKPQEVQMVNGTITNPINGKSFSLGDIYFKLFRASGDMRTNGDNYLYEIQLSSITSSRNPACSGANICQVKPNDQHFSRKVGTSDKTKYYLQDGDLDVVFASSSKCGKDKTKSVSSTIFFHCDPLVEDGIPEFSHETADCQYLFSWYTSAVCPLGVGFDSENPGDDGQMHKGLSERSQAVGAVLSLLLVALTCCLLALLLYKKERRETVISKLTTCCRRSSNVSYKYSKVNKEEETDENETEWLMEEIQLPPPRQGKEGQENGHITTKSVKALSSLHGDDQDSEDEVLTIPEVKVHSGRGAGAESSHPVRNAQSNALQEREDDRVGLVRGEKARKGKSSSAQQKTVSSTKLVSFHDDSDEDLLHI

| Substance | stated: internalized; internalized GAA activity (nmol/mg protein/hr) in skeletal muscle myoblasts against rhGAA added (nM) | stated: internalized; internalized GAA activity (pmol 4-MU/mg/h), 4MU-α-Glc assay, Pompe patient fibroblasts, 20 nM rhGAA | stated: taken up; internalized GAA activity in CRL 2076 (normal fibroblasts) | stated: taken up; internalized GAA activity in PM25 (Pompe fibroblasts) | stated: not internalized; internalized GAA activity (pmol 4-MU/mg/h), 4MU-α-Glc assay, Pompe patient fibroblasts, 20 nM rhGAA |
| --- | --- | --- | --- | --- | --- |
| ATB200 rhGAA (recombinant human acid α-glucosidase produced from CHO cell line GA-ATB200) | ATB200 curve rises steeply from 0, to about 400 near 15 nM and about 540 near 30 nM, then flattens: about 630 near 60 nM, about 700 at 125 nM, about 740 at 250 nM | bar 'Cipaglucosidase alfa + Mock' is the highest, a little above the 900 tick; untreated cells are at 0 | curve marked ATB200 rises steeply from about 0 to about 26 at about 10 nM and about 33 nmol/mg protein/hr at about 27 nM, then plateau of about 34-35 up to about 240 nM; with +M6P at about 240 nM (triangle) only about 5 | curve marked ATB200 rises steeply from about 0 to about 30 at about 10 nM and about 36 at about 27 nM, then plateau of about 40 nmol/mg protein/hr at about 80 nM (point of about 45 at about 240 nM); with +M6P at about 245 nM (triangle) about 1 |  |
| LUMIZYME® (alglucosidase alfa, conventional rhGAA product) |  |  | curve marked Alglucosidase Alfa rises slowly: about 8 at about 10 nM, about 16 at about 27 nM, about 23 at about 80 nM, about 35 nmol/mg protein/hr at about 240 nM, no clear plateau; with +M6P at about 240 nM (square) about 1 | curve marked Alglucosidase Alfa rises slowly: about 7 at about 10 nM, about 13 at about 27 nM, about 27 at about 80 nM, about 37 nmol/mg protein/hr at about 240 nM, still rising; with +M6P at about 245 nM (square) about 3 |  |
| PAP-treated cipaglucosidase alfa (dephosphorylated cipaglucosidase alfa) |  |  |  |  | bar 'Cipaglucosidase alfa + PAP' is at about 0, at the level of 'Untreated Cells' and 'PAP Alone' |
| alglucosidase alfa (mock-treated control of Example 16) | Alglucosidase alfa curve rises slowly: about 150 near 30 nM, about 250 near 60 nM, about 390 at 125 nM, about 475 at 250 nM. It is still rising with no plateau and lies below ATB200 at every concentration | bar 'Alglucosidase alfa + Mock' lies a little below the 300 tick, clearly above untreated cells and well below the cipaglucosidase alfa + Mock bar |  |  |  |

From US20260041744
